According to patent publication US20150315289A1:
Each block holds one substance with its values, some of them ahead of it.

Legend:
[1] = biological target: human MUC5AC (native mucin) (human) (UniProt P98088); assay: sandwich EIA: hPAM4 capture of antigen from CPM1, murine MAb probe at 10 µg/mL
[2] = biological target: human MUC5AC (native mucin) (human) (UniProt P98088); assay: inhibition EIA on CPM1-coated plates; competitor hPAM4 at […]
[3] = biological target: human MUC5AC (native mucin) (human) (UniProt P98088); assay: binding of radioiodinated TF10 to MUC5AC (not shown)
[4] = biological target: human MUC5AC (native mucin) (human) (UniProt P98088); assay: elution analysis of 111In-IMP-288/TF10 with excess mucin
[5] = biological target: IMP-288 di-HSG hapten-peptide; assay: elution analysis of radiolabeled peptide with TF10 (not shown)
[6] = biological target: human MUC5AC (native mucin) (human) (UniProt P98088); assay: ELISA on target mucin antigen

Kd [1]: 14.3 µg/mL
ICmax (maximal inhibition) [2]: 25.5%
Substance: 45M1 anti-MUC5AC mouse monoclonal antibody

immunoreactive fraction [3]: 87%
percent of TF10-bound 111In-IMP-288 eluting at higher molecular weight with excess mucin [4]: 92%
percent of 111In-IMP-288 bound [5]: 90%
Substance: TF10 bispecific ([hPAM4]2 x h679) DNL construct (bispecific antibody)

EC50 [6]: 1.83 nM
Substance: PAM4-F(ab′)2
